The record followed here is patent US20140366219A1, “Increasing Soybean Defense Against Pests” (priority 2011, published 2014).

Several values for one entry are separate records, joined by “and”; a condition that tells them apart may be missing. Equal entries are not always repeated.

Substrate in series [1]: O=C(O)c1ccccc1O
The series is described as follows: Determination of kinetic parameters of GmSAMT1 (Lineweaver-Burk). The format is biochemical, soybean. The note with it: other: SA varied 2 to 150 μM, SAM 200 μM, 25° C., 30 min. As for the experimental part: A 50 μl volume containing 50 mM Tris-HCl, pH 7.5, 1 mM SA, and 3 μM ^14C-SAM with a specific activity of 51.4 mCi/mmol (Perkin-Elmer, Boston, Mass.) was used. The assay was initiated by addition of SAM, maintained at 25° C. for 30 min, and stopped by the addition of ethyl acetate (150 μl). After phase separation by 1 min centrifugation at 14,000 g, the upper organic phase was counted using a liquid scintillation counter (Beckman Coulter, Fullerton, Calif.). The radiation counts in the organic phase indicated the amount of synthesized MeSA. Substrate specificity assay was also performed for recombinant GmSAMT1, with a range of substrates including SA, benzoic acid, anthranilic acid, 3-hydroxybenzoic acid, 4-hydroxybenzoic acid, nicotinic acid, p-coumaric acid, caffeic acid, cinnamic acid, vanallic acid, jasmonic acid (JA), gibberellic acid, indole-3-acetic acid, and 2,4-dichlorophenoxyacetic acid. The activity with SA was set at 100%. Three independent assays were performed for each compound.
Appropriate enzyme concentrations and incubation time were determined in time course assays to make sure that the reaction velocity was linear during the assay period. Lineweaver-Burk plots yielded apparent Km values. To determine the Km for SA, concentrations of SA were independently varied from 2 to 150 μM, while SAM was held constant at 200 μM. […]

The next series has as its system SCN race 2. The series is described as follows: Nematode infection and demographics assay in transgenic soybean hairy roots. The format is in vivo, Heterodera glycines. The note with it: for reduction of susceptibility: susceptibility of vector control in susceptible background set at 100%; for (J3+J4)/total SCN ratio: overexpressing transgenic hairy roots, two weeks after inoculation. From the text: The soybean hairy root transformation system by infection with A. rhizogenes harboring the target genes were modified and used to study soybean resistance against SCN. A. rhizogenes K599 harboring the target gene, vector control and A. rhizogenes K599 alone were used to inoculate the TN02-275 soybeans, which are susceptible to SCN race 2. To better evaluate the resistance of the target gene, A. rhizogenes harboring the vector control and A. rhizogenes K599 alone were also used to inoculate the TN02-226 soybeans, which are resistant to SCN race 2. Generation of soybean hairy roots was modified as follows: First, soybean seeds were sterilized with chlorine gas. Second, a single layer of mature soybean seeds with intact seed coats were placed in open Petri dish, which was put in a bell jar desiccator within a fume hood. A beaker with 100 ml bleach was also placed in the desiccator and added 5 ml concentrated (12N) HCl along the side of the beaker. Then the seeds were kept in the closed desiccator immediately and maintained in the chlorine gas atmosphere overnight (about 16 h). After sterilization, seeds were transferred to the autoclaved filter paper moistened with sterilized distilled water in the Petri dishes for germination in a laminar flow hood. The germinated soybean seeds were sowed in sterilized vermiculite and six seeds were grown in each cell of 18-cell germination tray. The overnight cultured bacteria lawn of A. rhizogenes K599 with binary vector pJL-OFP, pJL-OFP-35S::GUS or pJL-OFP-35S::GmSAMT1 from LB medium plate containing […] kanamycin, or a culture of A. rhizogenes K599 lacking the binary vector grown in LB medium without any antibiotics was collected and suspended in 1 ml of sterile distilled water, respectively. Soybean cotyledonary nodes and upper hypocotyls of 5-day-old seedlings with unfolded cotyledons were stabbed three times by the syringe containing the bacterial suspension. In the first week, the trays were covered with the sterile transparent lids to retain high humidity. In the subsequent three weeks, plants were transferred into pots and the A. rhizogenes wounding sites were covered by wet sterile vermiculite to continually keep high humidity. Each day soybean plants were watered using sterile B&D solution containing 1 mM CaCl2, 0.5 mM KH2PO4, 10 μM Fe-citrate, 0.25 mM MgSO4, 0.25 mM K2SO4, 1 μM MnSO4, 2 μM H3BO4, 0.5 μM ZnSO4, 2 μM CuSO4, 0.1 μM CoSO4, 0.1 μM Na2MoO4, and 1 mM KNO3. The growth conditions for soybean plants were 12 h light/12 h dark at 28° C./25° C. with irradiance from fluorescent bulbs at 150-200 μmol m^−2·s^−1. After about four weeks, the hairy roots grew to approximately 10 cm in length. Soybean transgenic roots were detected based on OFP expression, using a fluorescence stereomicroscope (Olympus SZX12 fluorescence microscope and OFP filter). The tap root and non-transgenic roots were excised under the wounding site. Transgenic roots harboring pJL-OFP-35S::GUS screened by OFP signal were immersed in GUS solution (1 mM X-Gluc), 0.5 mM potassium ferrocyanide, 0.1% (v/v) TRITON™ X-100, 100 mM sodium phosphate buffer pH 7.0), and incubated at 37° C. overnight. In the following day, the X-Gluc solution was discarded. The roots were washed repeatedly with 70% ethanol to remove chlorophyll. Transgenic roots with visual GUS stain were recorded.
To easily compare the SCN infection, one transgenic root was left for the SCN inoculation. […]

The subject of the next series is GmICS1 (Glyma01g25690). The series can be described thus: qRT-PCR of GmICS1 in transgenic hairy roots. On the set-up: species or system soybean. The note with it: Williams 82 transgenic hairy roots, without SCN treatment. On the technique in general: Quantitative PCR measures a nucleic acid by following its amplification.
The next series deals with GmICS2 (Glyma03g17420). The series is described as follows: qRT-PCR of GmICS2 in transgenic hairy roots. The note with it: Williams 82 transgenic hairy roots, without SCN treatment. Further details: species or system soybean.
Substrate in series [2]: COC(=O)c1ccccc1O
The series can be described thus: Two-step radiochemical methyl ester esterase assay, kinetic parameters of GmSABP2-1. The note with it: other: MeSA 5 μM to 100 μM, Lineweaver-Burk; 25.0 °C. The series is classed as biochemical, soybean. The method, then:
A two-step radiochemical esterase assay was performed to determine the activity of E. coli-expressed Glyma16g26060 following a protocol previously reported by (Forouhar et al., Proc. Natl. Acad. Sci. USA 102: 1773-1778, 2005). The reaction of the first step was the reaction of substrate 10 μM MeSA and purified recombinant E. coli-expressed Glyma16g26060 for 30 min at 25° C. After that, the sample was boiled to stop the reaction and denature the enzyme. The second reaction step was started with the addition of 3 μM ^14C labeled S-adenosyl-L-methionine (SAM) with a specific activity of 51.4 mCi/mmol (Perkin Elmer, Boston, Mass., USA), and respective known purified methyltransferase with high activity. Here, GmSAMT1 mentioned previously was used for SA methyltransferase enzyme. The reaction was preceded for 30 min at 25° C. Then radiolabeled products were extracted and the radioactivity was counted using a liquid scintillation counter.
Appropriate enzyme concentrations and incubation time were determined in time-course assays so that the reaction velocity was linear during the assay period. To determine the Km for MeSA, the concentrations of MeSA were independently varied in the range from 5 μM to 100 μM. Lineweaver-Burk plots were made to obtain apparent Km value. Optimal pH for GmSABP2-1 was assayed from pH 6.0 to pH 9.0. Final values are an average of three independent measurements.

B1: GmSAMT1 (Glycine max) (protein)
chain: MEVAQVLHMNGGVGDASYANNSLVQQKVICLTKPIREEAIRSLYCSTHPRSLAIADLGCSSGPNTLFVVSEFIKIVEKLCRELNHKSPEYKVFLNDLPGNDFNNIFKSLDSVKEKLCDEMESGIGPCYFSGVPGSFYGRVFPYQSLHFVHSSYSLQWLSKVPEGVDNNKGNVYIGSTSPKNVVRAYYEQFQRDFSLFLKCRAEELVEGGRMVLTFLGRRSDDPSSKDGCYIWELLATALSDMVLQGIIREEQLDTFNIPQYTPSPSEVKLEVLKEGSFAINRLEVSEVNWNALDEWNALDFESERSESLSDGEYNVAQCMRAVAEPMLISHFGEAIIEEVFCRYQQILAERMSKEKTKFINVTILLTRKA
What is called Km is the substrate concentration at which the rate is half of its maximum. Regarding B1, the Km in series [1] is 32.9 ± 1.7 µM and 46.2 ± 4.2 µM.

B2: GmSAMT1: soybean salicylic acid methyltransferase gene (SEQ ID NO: 1), over-expressed in transgenic hairy roots via pJL-OFP-35S::GmSAMT1 (nucleic acid)
DNA: ATGGAAGTAGCACAGGTACTCCACATGAACGGTGGCGTTGGAGACGCAAGCTATGCAAACAACTCCCTTGTTCAGCAAAAGGTGATTTGTTTGACAAAGCCCATAAGAGAGGAAGCCATAAGAAGCCTCTATTGCAGCACACACCCCAGAAGCTTGGCAATTGCAGATTTGGGTTGCTCTTCTGGACCAAACACTTTATTTGTTGTGTCTGAATTCATAAAAATTGTGGAGAAGCTTTGCCGAGAGCTGAACCACAAATCTCCAGAATACAAAGTCTTTCTGAATGATCTCCCTGGGAATGACTTCAACAACATCTTCAAGTCTCTTGACAGCGTCAAAGAGAAATTGTGTGATGAAATGGAAAGTGGGATCGGTCCATGCTACTTCTCGGGTGTTCCCGGTTCTTTCTATGGAAGGGTTTTCCCATATCAAAGTCTTCATTTTGTCCATTCCTCATACAGCCTTCAATGGCTATCTAAGGTTCCTGAGGGTGTAGACAACAACAAGGGCAATGTTTACATAGGCAGTACGAGCCCCAAAAATGTTGTGAGAGCTTACTATGAGCAATTTCAGAGAGATTTCTCTCTTTTTCTCAAGTGTCGTGCAGAGGAATTGGTTGAAGGAGGACGCATGGTTCTCACATTTTTGGGAAGAAGAAGCGATGATCCATCTAGCAAGGATGGTTGCTACATTTGGGAGCTTTTGGCTACTGCTCTTAGTGATATGGTCTTGCAGGGAATCATAAGAGAAGAGCAATTAGATACTTTTAACATCCCTCAATACACTCCATCCCCATCTGAAGTGAAATTGGAAGTTCTTAAAGAAGGATCATTCGCCATCAATCGTCTAGAGGTTTCTGAGGTGAATTGGAATGCTCTCGATGAGTGGAATGCTCTAGACTTTGAATCTGAAAGGTCTGAATCACTTAGTGATGGTGAATACAATGTGGCACAGTGCATGAGGGCTGTGGCAGAACCTATGCTGATTAGCCACTTTGGTGAAGCTATCATTGAAGAGGTTTTTTGCCGCTACCAGCAAATCTTGGCTGAACGTATGTCCAAGGAGAAAACCAAGTTCATCAATGTTACCATATTATTGACTAGAAAAGCATAA
modifications: Glycine Max
Consider B2, for which, in the series on SCN race 2 (TN02-275 background), the reduction of susceptibility was 85.6% and the “(J3+J4)/total SCN ratio” value is 3.4%. Also, in the series with SCN race 2 (Williams 82 background), the reduction of susceptibility was 71.2% and the “(J3+J4)/total SCN ratio” value is 5.3%. Moreover, the “GmICS1 transcript abundance relative to controls” value in the series with GmICS1 (Glyma01g25690) worked out at 5.3 times. In addition, the “GmICS2 transcript abundance relative to controls” value in the series with GmICS2 (Glyma03g17420) is listed as 8.2 times.

B3: GmSABP2-1 (Glycine max) (protein)
chain: MGSQNCMDRKHYVLVHGACHGAWCWYKLKPRLESAGHKVTVLDLAASGTNMKKIEDVDTFSEYSAPLLQLMATIPSNEKLVLVGHSLGGLNIALAMEKFPEKVAVGVFLTAFAPDTEHHPSYVLEKYNERTPLAAWLDTEFAPSGNKTSMFFGPNFLSDKLYQLSPIEDLELAKTLARPSSLFMEDLTKQKNFSKEGYGSVPRAFIVCTEDLGIPLEYQLLMIQNVGFNDVVEVKDADHMVMLCKPQELFDSLQQIATKYA
B3: the Km in series [2] is 46.2 ± 2.2 µM.
